Laboratory results reported in patent US20210108174A1 (CRISPR THERAPEUTICS, published 2021).

Target: T1, biotinylated recombinant human BCMA (human, UniProt Q02223 1-54, biotinylated)
T1 construct: Bought reagent; also called biotinylated BCMA; Recombinant biotinylated human BCMA (Acro Biosystems Cat:# BC7-H82F0)
T1 sequence (looked up): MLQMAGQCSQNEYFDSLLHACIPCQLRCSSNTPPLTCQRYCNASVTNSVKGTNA
Test: flow cytometry, biotinylated BCMA detected with streptavidin-APC on CAR T cells

B1: Anti-BCMA CAR of CTX-160 (CD28 co-stimulatory domain) (other)
chain: EVQLVESGGGLVQPGGSLKLSCAASGIDFSRYWMSWVRQAPGKGLEWIGEINPDSSTINYADSVKGRFTISRDNAKNTLYLQMNLSRAEDTALYYCASLYYDYGDAMDYWGQGTLVTVSSGGGGSGGGGSGGGGSDIQMTQSPSSLSASVGDRVTITCRASQSVDSNVAWYQQKPEKAPKSLIFSASLRFSGVPSRFSGSGSGTDFTLTISSLQPEDFATYYCQQYNSYPLTFGAGTKLEIKSAAAFVPVFLPAKPTTTPAPRPPTPAPTIASQPLSLRPEACRPAAGGAVHTRGLDFACDIYIWAPLAGTCGVLLLSLVITLYCNHRNRSKRSRLLHSDYMNMTPRRPGPTRKHYQPYAPPRDFAAYRSRVKFSRSADAPAYQQGQNQLYNELNLGRREEYDVLDKRRGRDPEMGGKPRRKNPQEGLYNELQKDKMAEAYSEIGMKGERRRGKGHDGLYQGLSTATKDTYDALHMQALPPR
notes: Chimeric antigen receptor on edited primary human T cells; also called anti-BCMA (CD28) CAR
B1 was tested, and the “percent of cells that bound biotinylated BCMA” value was 60%.
